# B1: TPR t1 (parent)
# chain: GACCAAUCUGCCCUCAGAGCUCGAGAACAUCUUCGGAUGCAGAGGAGGCAGGCUUCGGUGGCGCGAUAGCGCCAACGUCCUCAACCUCCAAUGCAUCCCACCACAUGAUGAUGCCUGAAGAGCCUUGGUUUUUUG
# Variants of: B1
# Experiment: polymerase ribozyme fitness, log enrichment relative to wild type (log ratio); higher = more active; in vitro selection for triplet polymerase activity
# Method in brief: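 Input and output libraries were sequenced on Illumina after a single in vitro selection round, run in triplicate on PCR-built, transcribed mutant libraries of each subunit of a heterodimeric triplet polymerase ribozyme. Selection annealed libraries to a biotinylated primer, the partner subunit and triplets, incubated them frozen at −7 °C, then gel-excised extended constructs for streptavidin-bead capture and RT-PCR. Genotypes with ≥10 input reads and ≥1 read per output were kept. Fitness is the logarithm, taken in base 2, of genotype enrichment divided by wild-type enrichment, using inverse-variance-weighted replicate averages.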
row,Variant,polymerase ribozyme fitness (log ratio)
1,GACCAAUCUGCACUCAGAGCUCGAGAACAUCUUCGGAUGCAGAGGAGGCAGGCUUCGGUGGCGCGAUAGCGCCAACGUCCUCAACCUCCAAUGCAUCCCACCACAUGAUGAUGCCUCAAGCGCCUUGGUUUAUUG [C12A G117C A121C U132A],-5.13
2,GACCAAUCUGUCCUCAGAGCUCGAGAACAUCUUCGGAUGCGGAGGAGGCAGGCUUCGGUGGCGCGAUAGCGCCAACGUCCUCAACCUCCAAUGCAUCCCACCAAAUGAUGAUGCCUGAAGAGUCCUGGUUUUUUG [C11U A41G C104A C123U U125C],-1.19
3,GACCAAUCUGCCCUCAGAGCUCGAGAACAUCUUCGGAUGCAGAGGAGGCAGGCUUCCGUGGCGCGAUAGCGCCAACGUCCUCAACCUCCAAUGCAUUCCACCACAUGAUGAUCCCUGAAGAGCCUUGGUUUUUUG [G57C C97U G113C],-3.16
4,GACCAAUCUGCCCUCAUAGCUCGAGAACAUCUUCGGAUGCAGAGGAGGCAGGCUUCGGUGGCGCGAUAGCGCCAACGUCCUCAACCUCCAAUGCAUCCCACCACAUGAUGACGCCUGAAGAGCCUUGGUUUUUUG [G17U U112C],-0.756
5,GACCAAUCUGCCCUCAGAGCUCGAGAACAUCUUCGGAUGCAGAGGAGGCAGGCUUCUGUGGCGCGAUAGCGUCAACGUCCUCAACCUCCAAUGCAUCCCACAACAUGAUGAUGCCUGAAGAGCCUUGGUUUUUUG [G57U C72U C102A],-2.25
6,GACCAAUCUGCCCUCAGAGCUCGAGAACAUCUUCGGAUGCAGAGGUGGCAGGCUUCGGUGGCGCGAUAGCGCCCACGUCCUCAACCUCCAAUGCAACCCACCACAUGAUGAUGCCUGAAGAGCCUUGGUUUUUUG [A46U A74C U96A],-1.66
7,GACCAAUCUGCCAUCAGAGCUCGAGAACAUCUUCGGAUGCAGAGGAGGCAGGCUUCGGUGGCGCGAUAUCGCCUACGUCCUCAACCACCAAUGCAUCCCCCCACAUGAAGAUGCCUGAAGAGCCUUGGUUUUUUG [C13A G69U A74U U87A A100C U109A],-5.82
8,GACCAAUCUGCCCUCAGAGCUCGAGAACAUCUUAGGAUGCAGAGGAGGCAGGCUUAGGUGGCGCGAUAGCGCCAACGUCCUCAACCUCCAAUACAUUCCACCACAUGAUGAUGCCUGAAGAGCCUUGGUUUUUUG [C34A C56A G93A C97U],-4.7
9,GACCAAUCUGCCCUCAGAGCUCGAGAACGUCUUCGGAUGCAGAGGAGGCAGGCUUCGGUGGCGCGAUAGCGCCAACGUCCUCAACCUCCAAUGCAUCCCACCAAAUGAUGAUGCCUGAAGAGCCUUGGUUUUUUG [A29G C104A],-2.84
10,GACCAAUCUGCUCUCAGAGCUCGAGAACAUCUUCGGAUGCAGACGAGGCCGGCUUCGGUGGCGCGAUAGCGCCAACGUCCUCAACCUCCAAUGCAUCCCACCACAUGAUGAUGCCUGAAGAGCCUUGGUUUUUUG [C12U G44C A50C],-0.802
11,GACCAAUCUGCCCUCAGAGCUCGAGAACAUCUUCGGAUGCAGAGGAGGCAGGCUUCGGUGGCGCGAUAGCGCCAACGUCCUCAACCUCCAAUGCAUCCCACCACAUGAUGAUACCUGAAGAGCCUUGCUUUUUUG [G113A G128C],-2.85
12,GACCAAUCUGCCCUCAGAGCUCGAGAACAUCUUCGGAUGCAGAGGAGGCAGGCUUCGGCGGCGCGAUAGCGCCAACGUCCUCAACCUCCAAUGCAUCCCACCACAUGAUGUUGCCUGUAGAGCCUUGGUUUUUUG [U59C A111U A118U],-4.73
13,GACCGAUCUGCCCUCAGAGCUCGAGAACAUCUUCGGAUGCAGAGGAGGCAGGCUUCGGUAGCGCGAUAGCGCCAACGUCCUCAACCUCCAAUGCAUCCCACCACAUGAUGAUGCCUGAAUAGCCUUGGUUUUUUG [A5G G60A G120U],0.955
14,GACCAAUCUGCCCUCAGAGCUUGAGAACAUCUUCGGAUGCAGAGGAGGCAGGCUUCGGUCGCGCGAUAGCGCCAACGUCCUCAACCUCCAAUGCAUCCCACCAAAUGAUGAUGCCUGAAGAGCCUUGGUUUUUUG [C22U G60C C104A],-5.43
15,GACCCAUCUGCCCUCAGAGCUCGAGAACAUCUUCGGAUGCAGAGGAGGCAGGAUUCGGUGGCGCGAUAGCUCCAACGUCCUCAACCUCCAAUGCAUCUCACCACAUGAUGAAGCCUGAAUAGCCUUGGUUUUUUG [A5C C53A G71U C98U U112A G120U],-6.47
16,GACCAGUCUGCCCUCAGAGCUCGAGAACAUAUUCGGAUGCAUAGGAGGCAGGUUUCGGUGGCGCGAUAGCGCCAACGUCCUCAACCUCCAAUGCUUCCCAUCACAUGAUGAUGUCUGAAGAGCCUAGGUUUUUUG [A6G C31A G42U C53U A95U C101U C114U U126A],-5.71
17,GACCAAUCUGCCCUCAGAGCUAGAGAACAUCUUCGGAUGCAGAGGAGGCAGGCUUCCGUGGCGCGAUAUCGCCAAAGUCCUCAACCUCCAAUGCAUCCCACCACAUGAUGAUGCCUGAAGAGCCUUGGUUUUUUG [C22A G57C G69U C76A],-5.3
18,GACCAAUCUGCCCUCAGAGCUCGAGGACAUCUUCGGAUGCACAGGAGGCAGGCUUCGGUGGCGCGAUAGCGCCAACGUCCUCAACCUCCAAUGCAUCCCACCACAUGAUGAUGCCUGAAGAGCCUUGGUUUUUUG [A26G G42C],-4.99
19,GACCAAUCUGUGCUCAGAGCUCGAGAAUAUCCUCGGAUGCAGAGGAGGAAGGCUUGGGUGGCGCGAUAGCGCCAACGUCCUCAACCUCCAAUGCAUCCCACCACAUGAUGAUGCCUGAAGAGCCUUGGUUUUUUG [C11U C12G C28U U32C C49A C56G],-2.91
20,GACCAAUCUGCCCUCAGAGCUCGAGAACAUCUUCGGAUGCAGAGGAGGCAGGCUUCGGUGACGCGAUAGCGCCAACGUCCUCAACCUCCAAUGCAUCCCACCACAUGAUGACGCCUGAAGAGCCUUCGUUUUUUG [G61A U112C G127C],0.55
21,GACCAAUCUGCCCUCAGAGCUGGAGAACAUCUUCGGAUGCAGAGGAGGCAGGCUUCGGUGGCGCGAUAGCGCCAACGUCCUCAACCUCCAAUGCAUCCCACCACAUGAUUAUGCCUGAAGAGCCGUGGUUUUUUG [C22G G110U U125G],-4.31
